Assay results from patent publication US20090186824A1.
Where no end group is shown, it is not given here.

Biological target: dipeptidyl peptidase IV (DPPIV) in plasma of ICR mouse blood (mouse), P28843
Experiment: cell-based or functional assay

dipeptidyl peptidase IV (DPPIV) in plasma of ICR mouse blood (mouse), P28843, sequence (P28843 37-760 limits assumed): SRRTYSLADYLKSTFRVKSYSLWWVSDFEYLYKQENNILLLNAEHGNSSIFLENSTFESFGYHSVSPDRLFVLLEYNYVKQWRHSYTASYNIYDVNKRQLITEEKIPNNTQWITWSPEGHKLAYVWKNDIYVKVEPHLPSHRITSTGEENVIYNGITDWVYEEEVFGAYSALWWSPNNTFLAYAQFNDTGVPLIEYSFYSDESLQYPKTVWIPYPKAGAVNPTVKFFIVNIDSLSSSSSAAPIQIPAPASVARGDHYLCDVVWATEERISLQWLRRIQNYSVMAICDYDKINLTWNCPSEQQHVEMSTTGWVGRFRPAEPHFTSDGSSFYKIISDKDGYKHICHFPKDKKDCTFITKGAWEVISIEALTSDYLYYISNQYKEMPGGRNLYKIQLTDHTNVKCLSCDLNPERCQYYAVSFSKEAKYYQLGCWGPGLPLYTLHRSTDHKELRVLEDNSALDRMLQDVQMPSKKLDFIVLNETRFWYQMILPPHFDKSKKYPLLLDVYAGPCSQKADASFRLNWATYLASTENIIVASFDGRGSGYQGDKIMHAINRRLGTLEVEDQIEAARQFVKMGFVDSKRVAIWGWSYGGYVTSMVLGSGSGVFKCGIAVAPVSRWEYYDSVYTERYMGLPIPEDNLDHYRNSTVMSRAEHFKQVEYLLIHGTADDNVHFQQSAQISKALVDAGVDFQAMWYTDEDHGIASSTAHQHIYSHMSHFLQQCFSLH

% DPPIV Activity (Saline) (% relative to saline control): 51
B1: SEQ ID NO 10 (peptide)
peptide: RIVPA-OH
